# Assay: soluble on expression in E. coli; label from the status in PepcDB or PDB records
row,Sequence,soluble on expression in E. coli
1,MGTLIMENETNLSEVELRKNLIANINDCKTLLQLGEIYYSSGRYYLAANYLSYVMKMTNDAALYEKSNQLLFLAERAIQINNNDKMFSNFEFLDTLIMELLNCLKNHYYYNIDIELFELMHVRPSVDSIVVNTQNEKEEIVKHLQGLEELYFNLNDSFSKELLIKLLTFRLLGNHKVKMPLNTIDYWKQRKSIPNLIHSSETLQTNYHNWTLQLFDLTPLKYNLRLFYVPMGISATFLDKQYEYNKISPVIKVKEGDVVIDAGGCFGDTALYFAHEVGETGHVYTIEFIPSNLEIMSKNINLNEKLQNNITIVKHPLWNVSNTSLYYKDQGAASFVTFSEESGVTDKVSTITIDNLVVEHKLHKLDFIKMDVEGAEMNALKGAIHSITTFRPTLAIAIYHQISDFVNVMRFINDLNLGYQFYLGHYTVNAQETILFAVAREKMEVSDENEE,soluble
2,MGSDKIHHHHHHMAVGTTKMAQMLDPEVLADMIDAEVGKAIRFAPLAEVDTTLEGQPGTTLTVPKWDYIGDAEDVAEGEAIPMTQLGFKKTTMTIKKAGKGVEITDEAILSGYGDPVGQAAKQIVEAIDHKVDADVLDALSKSTQTVEATATVDGVSKALDIFNDEDDAETVIVMNPADASTLRLDAAKEWLGATEVGANRVVSGVYGEVLGVQIVRSRKCPKGTAYMVRKGALRIMLKRNTMVETDRDITKAINQIVANKHYGVYLYKAEKAVKITLKDAAKK,not soluble
3,MILKLKYYREAMNLTQEELARHAKVSVAMVQSMENGRRKGSTDTILKLSDALNVTVDDLLRGNNMTISHKKETSK,not soluble
4,MGSDKIHHHHHHMAGATLLTSSCNDWLDVLPKNEQVSPEYWKTKEQVEEVLAQGYQNMRLTVPTLIYWGELRGASIYAYSGKSKQELQNFQLNSSSGECKWGGFYSILNVANSIIKYAPEVKRQDETYHEAVMNSNMAEAYFMRAWTYFTLVRNFKEVPLILEPYMTDEYAVDIPKSSEETIIAQIKLDIENALSTGAAKEMYDDEDWTGMSKGRVTVWALYALMADVCLWSEDYDGCVRYADMLINSTSAFRPAFVEDPEQWYNIFFPGNSNGSIFELNFDQSRNQSPDDDATASTYPSPSNVYPWTQSTVASLQFSNAMCKRLFDEQTDQWVTSNTVRGYGNTFVLSSGTVIGNSNTEGYLPFKFRIGGKDGLSTTRSYKDANWILYRMADVLLMKAEALIWKGGEANFAQALELINKIRTRANVTTLSVQTNAVSQENMLGYLLQERDLEFAAEGKRWYDLLRFGRSQNFKYKDQFINMIIENNSTVSASWIRSVLKNTDAWYLPISQGEIDSNPNLIQNPYYDVTAN,not soluble
5,MILVTGGARSGKSRHAEALIGDAPQVLYIATSQILDDEMAARIQHHKDGRPAHWRTAECWRHLDTLITADLAPDDAILLECITTMVTNLLFALGGENDPEQWDYAAMERAIDDEIQILIAACQRCPAKVVLVTNEVGMGIVPENRLARHFRDIAGRVNQRLAAAADEVWLVVSGIGVKIK,soluble
6,MRVNVPVQVPPPASPPQPSQPAGQAQGGVTAPVIKVLPGNPLPPAGSAFVDDFSSYPTGAVLPMVAPDRYGVYKAPNGTLSPAVAETFTPQGGLDKALRLEAANTAMLTTGAPDWTDYRVSFRFKYETGGTLDVGLFVHGSGDRMLIVRLGWGYTGGVHLIKVAGDQRFTLVSRRELKPLTEALKDQNWHDFAAEARSDGTVRVMVDQQTVIEWKDPDYRAGGIGIGINRLGDRIIWHIDDLKVERL,soluble
7,MSSGSRPSSGGGGGGGGASGGAGGGAPGGGGGGIRGFFSKLRKPSDQPNGNQVQVGTRTFEAHELQKLIPQLEEAISRKDAQLRQQQTIVEGHIKRISELEGEVTTLQRECDKLRSVLEQKAQSAASPGGQPPSPSPRTDQLGNDLQQKAVLPADGVQRAKKIAVSAEPTNFENKPATLQHYNKTVGAKQMIRDAVQKNDFLKQLAKEQIIELVNCMYEMRARAGQWVIQEGEPGDRLFVVAEGELQVSREGALLGKMRAGTVMGELAILYNCTRTASVQALTDVQLWVLDRSVFQMITQRLGMERHSQLMNFLTKVSIFQNLSEDRISKMADVMDQDYYDGGHYIIRQGEKGDAFFVINSGQVKVTQQIEGETEPREIRVLNQGDFFGERALLGEEVRTANIIAQAPGVEVLTLDRESFGKLIGDLESLKKDYGDKERLAQVVREPPSPVKIVDDFREEFAQVTLKNVKRLATLGVGGFGRVELVCVNGDKAKTFALKALKKKHIVDTRQQEHIFAERNIMMETSTDWIVKLYKTFRDQKFVYMLLEVCLGGELWTTLRDRGHFDDYTARFYVACVLEGLEYLHRKNIVYRDLKPENCLLANTGYLKLVDFGFAKKLASGRKTWTFCGTPEYVSPEIILNKGHDQAADYWALGIYICELMLGRPPFQASDPMKTYTLILKGVDALEIPNRRIGKTATALVKKLCRDNPGERLGSGSGGVNDIRKHRWFMGFDWEGLRSRTLKPPILPKVSNPADVTNFDNYPPDNDVPPDEFSGWDEGF,not soluble
8,MAAEFVRKFQSFSESDKQWRAREEFIIRNLNRFEDESEIDQLLALSMVWANHVFMGCRYSNELLEKVCGMAEGIVVEDAPHFTTRDEIMKQRNQ,soluble
9,SLSLESLEWMAFDSFLLWRSEESIDARILLVEINQNDNYSLTSTISNSSFIGVIEKLQVYQPKVIGLEVDQHLLINSQEDKLAKIFQKYKNLIANEKILPLQVHSYLDLPNEQITFADQILDNDGKSRRSLLAINTSNGYKLSLAMELARIYLAEKNISLENSRLGKTKLPRFLPNSGGYIRADASGFQVLINFRSGNQRFRTLSGEDIKNGKFNPEWIRDRIVIIGITNTHNQGFIPTSAITSVKSASTQVNKLEIQAHAISQIISAVLDGRPLINTWNDG,soluble
10,MELFTEAWAQAYCRKLNESEAYRKAASTWEGSLALAVRPDPKAGFPKGVAVVLDLWHGACRGAKAVEGEAEADFVIEADLATWQEVLEGRLEPLSALMRGLLELKKGTIAALAPYAQAAQELVKVAREVA,soluble
11,MPNQGSSNKVYVIGVGMTKFEKPGRREGWDYPDMARESGTKALRDAGIDYREVEQGYVGYVYGESTSGQRALYELGMTGIPIVNVNNNCSTGSTALYLGAQAIRGGLADCVLALGFEKMQPGALGGGADDRESPLGRHVKALAEIDEFGFPVAPWMFGAAGREHMKKYGTTAEHFAKIGYKNHKHSVNNPYAQFQDEYTLDDILASKMISDPLTKLQCSPTSDGSAAVVLASEDYLANHNLAGRAVEIVGQAMTTDFASTFDGSARNIIGYDMTVQAAQRVYQQSGLGPKDFGVIELHDCFSANELLLYEALGLCGPGEAPELIDDNQTTYGGRWVVNPSGGLISKGHPLGATGLAQCAELTWQLRGTAEARQVDNVTAALQHNIGLGGAAVVTAYQRAER,not soluble
12,MGSDKIHHHHHHMRSAAVDYAPSQAERRNFQRVRVKIYGRFMLEDRTEHPCQVVDMSPGNVAFRTDRIGMPGEKVIAYIDHIGRIEGVVTRTLQDGFAMTVIASDRKKDKLAAQLTWLANKHELDLPEDRRHERVAPRNPTSVLQLTDGRQYQCRIIDLSLSGAAIEIDVKPAIGVQVMLGTMRGQIVRHFEDGVAIEFAVIQRPETLDSEFNTPRA,not soluble
13,SASGYQFGSVDQVEGGSVQYTRKYLGTGNLNDLYVGIGATPFKNFSIGANASSLFGRFTHSRQVIFSTEAPYNPVHLSTLYLKAAKFDFGMQYHLLLKSDRSLVIGAVYSPRVKMHSELTQIKNQVQNGVVVESETQEYIKGMDYYTLPHTLGIGFSYEKKDKLLLGADVQYSKWKGEKFYKSDCKFQDRIRVSLGGEIIPDINAVGMWPKVRYRFGLHGENSYLKVPTKGGV,not soluble
14,TRGLNFSVEFTGGTVMEVQYQQGADVNKMRERLDTLKIGDVQVQALGTNKHIMIRLPNKEGVTSAQLSNQVMDLLKKDSPDVTLRQVEFIGPQVGEE,not soluble
15,MSKLVGNLIPNTFFITKGSGESDLELHAGSYHMALFDAGISDFNIMTYSSVLPATAHLATMDEIDLPPFGSELKTIMAVSHGYQDEFVSAGVVYAWMYKDENFDEKAGGLVCEVSGRYRIEELESRLIRVINDLHQKTYSQYYLGELNFITEGITIEKRYGTALAGLCFMDFIQPEVQKK,not soluble
16,MSLTITVNGVEISEDMIASQLDHYADTPSPRDTAIQQLILHTLLIQQAKSEGLDVADEQQAIQTLLDSKLQVPAIDEASCREFYDRYPERFSAGESAVASHILLPKGEGLEASLIKAKAEGILEEAQANPSRFAALAQEHSTCPSGKQGGSLGQFGRGQMVPEFEQAVFSTEAGQITPHLVETQFGYHIIQVEQRAEGGKIGFDEVKERLQHYLADLAVNQAMHEYLNMLVSAAQISGYQMTAEGHHHHHH,soluble
